Assay: soluble on expression in E. coli; label from the status in PepcDB or PDB records

Sequence | soluble on expression in E. coli
MTSSLSLHSSFVPSFADLSDRGLISKNSPTSVSISKVPTWEKKQISNRNSFKLNCVMEKSVDGQTHSTVNNTTDSLNTMNIKEEASVSTLLVNLDNKFDPFDAMSTPLYQTATFKQPSAIENGPYDYTRSGNPTRDALESLLAKLDKADRAFCFTSGMAALSAVTHLIKNGEEIVAGDDVYGGSDRLLSQVVPRSGVVVKRVNTTKLDEVAAAIGPQTKLVWLESPTNPRQQISDIRKISEMAHAQGALVLVDNSIMSPVLSRPLELGADIVMHSATKFIAGHSDVMAGVLAVKGEKLAKEVYFLQNSEGSGLAPFDCWLCLRGIKTMALRIEKQQENARKIAMYLSSHPRVKKVYYAGLPDHPGHHLHFSQAKGAGSVFSFITGSVALSKHLVETTKYFSIAVSFGSVKSLISMPCFMSHASIPAEVREARGLTEDLVRISAGIEDVDDLISDLDIAFKTFPL | soluble
MTSTPIERAVYIVSDSTGITAETFSHSVLSQFDEVNFKPVRLPFIDTLDKAREVVARINRNALEAGVPPIVFSTLVNPEILALVRQSNGVFLDLFGTFVSHIEQALGLKSSHSIGRSHMAANSEKYRNRIDAINFSLAHDDGQFVNQLDQADVILLGVSRCGKTPTSLYLAMQYAVKAANFPLTPDDFERGALPKTIAPYRGKLFGLSIQPERLAEVRNERRPNSHYARLEQCRYEVAEAERMMRREGISWLSTTTKSIEEIATTVLQEVGLERVAAALEHHHHHH | soluble
MTSVGPGQPQKELIRAQNGTYEVTKPLATGTFGSIYKVKRESDGKFFAVKCEALNMKSSLLRQMSVVLASIHHPSPFFTNIEERGTVPNRFLFIVMPLYGENLYELMMNTNKDRKFSMATGLHLAEQTLAAIRDLHRNGFIHRDIKPSHFCIGREIDGQHHQVYLLDFGLCKRPRFVKKNDEAEEQMRKNAIHYRGVVKYASVHAHQGKNLGYKDDMESWWYMVLEFFLGALPWALLNKESEQDVLHLKRRITAPMVASVWRTTPETTAGFFDLLTIIREPKDVAEFVEYDRIADGIQKLFEKSKSNTQEPPDWDCMTDYKGPGYQQVLMIAPPEVGLKPEMDFGKSDPGAGGESGEQPKKEDVDKKKKKKKKSKKKGKSNNKTTSAEEQKGGKCAPPSRVRDERRETRDETVCEIETRSR | not soluble
MTTDYDFWLFDLDGTLVDIEPAYPRKVMGAVGDRLGVEFTDRERDALWYGFGGTRSRTLAERNVDQQEFWRLFHEEEDPIARAEATYLYDDAEQFLATLDTPVGLVTHCQQYLTEPVLDHLDITDWFETVVCCDDDIGWKPDPKPVELAMREMDVWYNGHHGVLAGDNPSDIGAAWNAGLDGVHVGRRSPTETGRCVRGDRRVASLLDLSSSQGR | not soluble
MTTINPTNYTLLKKQAASLIEDEHHMIAILSNMSALLNDNLDQINWVGFYLLEQNELILGPFQGHPACVHIPIGKGVCGTAVSERRTQIVADVHQFEGHIACDANSKSEIVVPIFKDDKIIGVLDIDAPITDRFDDNDKEHLEAIVKIIEKQLA | not soluble
MTTKNKRVLQKCAYREEFKGDMERSTAATSKLPLEVELSRNSKGLIIILSSPSGTGKSSLAKALLKIDNNLRLSISATTRKPRLGEVEGINYYFKTGLEFEELVKQNKFLEYAKIYDNYYGTPKEYVEMLLNQGLDVLFDIDWQGARSIKKNATNVVTIFVLPPNIEVLEQRLRNRATDNEEAIKLRMQLAQNEISHANEYDYVVTNDDFDRTLKKIHAIIVAARDKAF | soluble
MTTKPPIERIMYIELRTSLEMFRSDLVDLEALANAAKEALEQLPYIPKNPCGKGEDDDPLSGPESALRTGRLCGLVCCTATAAEGALSTCSKLIDWAYANEPEGVDDAVLADDIDGDDDDDDEGSGSNGANGGGGANGSGNGSNGSGNGGPPDGGVESAAPAGSTELAEARPSRGGIALDLPPAHAPHGAPVA | not soluble
MTTLYLASGSPRRQELLTQLGFSFEQVVPGIEEQRRAQESAQQYVVRLAREKAQAGVALVPRDLPVLGADTIVVLNGEVLEKPRDAAHAAEMLRLLSGNTHQVMTAVALADSQQTLDCLVVTEVTFRTLSAQDITGYVASGEPLDKAGAYGIQGRGGCFVRKINGSYHAVVGLPLVETYELLSHFNALRDKRDKHDG | not soluble
MTTNRETVLSMAKRKRSVVAINASGWRSNGEVMGLQIKDGVLYKDYDAAGYTGAEACVFFDDGTMKVYGNREVDADILISKGARNSFAFGIWLVKDSKPRTAQMTTWADLNVKHPRQAIGQRSDGTLVIITVDGRSLRSSGITAYDMPSLFLSEGCINAFLLDGGGSSQTAVEGKYINNISDGIERAVVDTLTISYPDDLEHHHHHH | not soluble
MTTNYVLRKPWRWLTISKDMMINEQIRAREVRLVGANGDQLGIKSRNDALDLAANLNLDLVLVAPNAKPPVCRIMDYGKFRFEQQKKEKEQRKNQKVISMKEVRLSPTIDEHDFNTKLRNAIKFLEKGDKVKASIRFKGRAITHKEIGQRVLDRFSEACAEVSTIESKPKMEGRSMFLVLAPKNDK | not soluble
MTTPAVKMVVAYVTAPSKEVAMTVARTTVTEALAACANVIPEVTSVYKWQGKIEEDQEHVVILKTVESKVEELSARVRSLHPAETPCFFTLAIDKITPDFGGWIVDSTNSSTAKH | soluble
MTTPNPLAKTKGAGTTFWMYTGNGDAFANPLSDTDWLRLAMVKDLQPGEMTADAEDDTYLDDEDADWKTTTQGQKSVGDTSATLACRPGDSGQKKLVQLFDSGEVCAFRIKYPNGTVDVFRGWLSSLGKTIASKDVMTRTVKISGVGRPYLAEEGTETVGVTGLTVAPASVSVKAGATTTLTFTVKPDGASDKAISVHSSDPQTASVTLSGLVATVKGVKQGSVSIVGMTSDGEFVAVAAVTVSAP | not soluble
MTTQFKPELLSPAGSLKNMRYAFAYGADAVYAGQPRYSLRVRNNEFNHANLKIGIDEAHSLGKKFYVVVNIAPHNSKLKTFIKDLQPVIDMKPDALIMSDPGLIMLVRENFPNIDIHLSVQANAVNWATVKFWKQMGLTRVILSRELSIDEIAEIRQQVPDIELEIFVHGALCMAYSGRCLLSGYINKRDPNQGTCTNACRWEYKMEEGTTDDVGNIVPKIDPAQQIEVKNVAPTLGEGAVTDKVFLYTESQKPDEQMTAFEDKHGTYFMNSKDLRAVQHVEKLTALGVHSLKIEGRTKSFYYCARTAQVYRKAIDDAAAGKPFDESLMDTLESLAHRGYTEGFLRRHTHDEYQNYEYGYSISDRQQFVGEFTGKRNEQGMAEVAVKNKFLLGDNVEMMTPQGNINFKIEKMLNRKNETVDAALGDGHFVFLNVPQDINLNYALLMRNLVNTNTRNPHSN | not soluble
MTTQTIDSAPHATWFVGASYGGTDDQMPRFLAEGIWENGYDDKLLEVVRSMRPGERIAIKSSYTRKHGLPFDSRGRAVSVMGIKAVGTITENLNDGKRVKVDWAKVEPVREWYFYTHRATIWRVLPGEWMNDALIAFAFDGKPQDVDRFRNEPFWRERYGTTSPEKQRFEWTDFYEAVAEKLLAHADDRTPLIEGIHEIASRVPGLTYLQDKFPDGTSGPLRDICPFTTMGTFNRSMTDANRKTLAGELAKLLGVTVPVPPSFEGIPVLNNQRSWFFAYADKRGAGDIDALWKVFVAASKMVDGDQLDTRDAFIRAYDEATQVWGVAWNLSTGLYWAHPWEFLTLDSQSRHYINKRLGLNVAISGQQGPCDGRAYLKLLDDLRSRFGEDGYPVHSFPDLSLASWMYKDPVDEPVPAGDIGTNAGAEQETEGEVREAFQVAAPIVPYSVEDILKDGCFLERAEIDRLLDRLRTKKNLILQGPPGTGKTWLAKRLAFALMGQKDDSKVRAVQFHPNLSYEDFVRGWRPTGEGKLSLADGVFMEAIKAASKDPSSKFVVVIEEINRGNPAQIFGELLTLLEAGKRTPNEALELCYPDADGKRRPVHIPENLYVVGTMNIADRSLALVDLALRRRFAFVGLEPRLGQVWRDWVVKECAVDPGLVADIERRIAELNDQIAADARLGKQFRIGHSYVTPAHRLEAGDTKKWFLQVVETEIGPLLDEYWFDAPDEAQKAIARLTQGWLEHHHHHH | soluble

Source: the DeepSol protein solubility set
